# In publication PMC2156119:
# Where two headings read alike, the source gives them in different places.
# Tests used:
# Op18-Δ5-9-F (human) [1] = test: pull-down
# Op18-Δ5-9-F (human) [2] = test: pull-down; remark: listed apart in the source
# [3] = target: tubulin as used by Curmi et al. 1997; test: plasmon resonance measurement; conditions: pH 6.5; cited from earlier work
Substance,Kd1 (first tubulin heterodimer) (Op18-Δ5-9-F (human) [1]),Kd2 (second tubulin heterodimer) (Op18-Δ5-9-F (human) [1]),Free [tubulin] at half saturation of Op18 (Op18-Δ5-9-F (human) [2]),Kd1 (first tubulin heterodimer) (Op18-Δ5-9-F (human) [2]),Kd2 (second tubulin heterodimer) (Op18-Δ5-9-F (human) [2]),stoichiometry N (mol tubulin per mol) (Op18-Δ5-9-F (human) [2]),Kd [3]
tubulin heterodimer (bovine tubulin) (from UniProt Q6B856 1-445) (complex),6.5 µM,0.91 µM,7.1 µM,74 µM,0.98 µM,2.1,–
stathmin/Op18 as used by Curmi et al. 1997,–,–,–,–,–,–,0.5 µM
